Laboratory results published in article PMC7427744, “Using singular perturbation theory to determine kinetic parameters in a non-standard coupled enzyme assay” (Journal of Mathematical Biology, 2020).

What was measured:
purified protein [1] = substrate: NCCCCC(=O)O; assay: purified protein; format: biochemical, Cupriavidus necator; conditions: co-substrate 5 mM pyruvate (assumed saturating), 2.5 mM NAD+, 5 uM PLP, sodium carbonate buffer pH 10, 30 C
purified protein [2] = substrate: CC(N)CC(=O)O; assay: purified protein; format: biochemical, Cupriavidus necator; conditions: co-substrate 5 mM pyruvate (assumed saturating), 2.5 mM NAD+, 5 uM PLP, sodium carbonate buffer pH 10, 30 C

B1: CnAptA (Cupriavidus necator H16) (protein)
chain: MDAAKTVIPDLDALWMPFTANRQYKAAPRLLASASGMYYTTHDGRQILDGCAGLWCVAAGHCRTEIAEAVARQAATLDYAPPFQMGHPLSFEAATKVAAIMPQGLDRIFFTNSGSESVDTALKIALAYHRARGEGQRTRFIGRERGYHGVGFGGMAVGGIGPNRKAFSANLMPGTDHLPATLNIAEAAFSKGQPQWGAHLADELERILALHDPSNVAAVIVEPLAGSAGVLVPPVGYLEKLREITSKHGILLIFDEVITAFGRLGAATAAERFKVTPDLITMAKAINNAAVPMGAVAVRREVHDTVVNSAAPGAIELLHGYTYSGHPLAAAAAIATLDLYQRENLFGRAAELAPVFEAAVHGVRGAPHVKDIRNYGLVAGIELEPRPGQPGARAYEAFLKCLELGVLVRYTGDILAFSPPLIISEAQIGELFDTVKKALQDIK
notes: E. coli ER2566 host; 47 kDa
Km (purified protein [1]): 930 µM
Km (purified protein [2]): 1300 µM
